This note sets out measurements from the supplement of paper PMC12636428.

The data set concerns Saccharomyces cerevisiae. As to the kind of experiment: transcriptional activation domain activity (GFP:mCherry ratio, weighted mean of sorted bins, harmonized to initial dataset scale) (arbitrary fluorescence ratio units); higher = stronger transcriptional activation. To be noted: beta-estradiol 1 µM; induction time 4 h. In short, it runs like this: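 In diploid yeast carrying a GFP reporter, barcoded protein tiles fused to an estradiol-inducible synthetic transcription factor were integrated at the URA3 locus. Cultures diluted 1:5 into SC with 1 uM beta-estradiol were kept at 30 °C for 4 hours, then sorted by GFP:mCherry ratio into 8 bins before barcode sequencing. Tiles with under 50 reads were excluded. The activation activity reported here is the read-weighted mean of bin median fluorescence, averaged across barcodes and linearly rescaled to the initial dataset.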

On to “ESDGGGEESGEGEERRKRRKKERLERRERKLKAKEEKKKKKSRGDGEAATKSQ”, for which the “transcriptional activation domain activity” value was found to be 25100.
The figure for “ESDILPRLLHAIRAELKEDISLKFAWRLYKLYLLCVYHLWKNVVLMIWYRRWI” is 81700; for “ESEDEGRDTTHDSDNEGDGHDANHGSENEGEGHDTTHDSKIEGAGRDAIRGSH” it is 8090; for “ESEEEVAAGSSANGKKQSGTRDSSKRSKKSDSKSEAKRSDKAEGAAEKTAPES” it is 18500.
For the sequence “ESEGDPEPQPAKSQSRRRQSRGRGRRGAESDSESVARSDVSATGGRRNRQRQK”, the “transcriptional activation domain activity” value turned out to be 43500.
The same measure for “ESEKAGGKRKQERRSRAGRGEGEGEERENRCRGEEGRGREGGGRREGKEGVGG”: 39400; for “ESERHSRRRKSVKGKGKAKEVQKKRASKDKTSKRKGKGEKRKRGEEEGRSANK”: 60200; for “ESEVAASENGKGKKEEEEKKRKKGLASTRQRNAAGKQSSSSKEEGKGARAYRS”: 26100.
The same measure for “ESEVAVVVHIGANTTAYQFLALCAMMAPMRDLFYAFGRVTIYALAPMFHAVRV”: 73900; for “ESFKPAPAPKKEEAPKEEAKPAEEGAKAEEAPKEGENKEEAKPAEEPKRRSAS”: 28400; for “ESGCGREDMTVKSGIVFSFYFFCCLFFFLLSLFVCFPPPFFFILLFPIFIHLY”: 18900.
For the sequence “ESGESEESGRARSRRKRRRREERRGEEGKRRTRAGVRRSKGRKTERASTAGTD”, the “transcriptional activation domain activity” value came to 43100.
The same measure for “ESGSGSGSESGDSKDTAKAQGRGRKRGRESENHSSEDEEESVERKPRKARKFR”: 36100; for “ESGWIYVSVTTFFTSIALLGVMIACMVLRTHLFIWTVFSPKYLYSMAWSLGQH”: 55900; for “ESHLVPEASKIWKPLDGYWMPSWMKYQIFIPLFMLQLLNLFWYFLIWHILIRA”: 44900.
The figure for “ESKDKSKEGKSKRGDKTLDTKGKSEEENKKGGDKKDEKKKDEKKKEEEEKEKA” is 25400.
As to “ESKNKAEEETEEGEGARGEEEEEEKEEQGESDNEDANSAEADKTKSKQGKKQR”, the “transcriptional activation domain activity” value came to 31900.
The figure for “ESLKHHEGINMVWKKFQSIFRIIEGIVYYEPVYRAFVRHILHHLHLDNVLWVD” is 70300; for “ESLREIGLTSVRDIITRHASEQAILTVVDFPLRVLAMIAQIRCGLWVRNGFVI” it is 77800.
As for “ESNVAGTAGSKPRKPRAKTQKKMRPSENSQAEKSDRSATRKSREPTGTRRGRK”, the “transcriptional activation domain activity” value amounted to 24800.
The same measure for “ESNVEAGKAEAEKAVEEAAGAEGEGGEEKAVEEEVAEGAEGEAAEGEAAEGEA”: 32600.
The same measure for “ESPSPDQEEEVEDRENDKPKANTAKKAKPAEGKKTGGRKKAALGGAAKKKAEK”: 43300; for “ESPSQINDFIPQKLIIEPNTLELNGLTEETPHDLPKNTAKGRDEEDFPLDYFP”: 55200; for “ESSEEDEEGGEGEGRKAKRNRMALSCKECKRRKIKCDRAMPSCGPCSKRGASS”: 27200.
For “ESSGGESEDDYVQEKRSSKPKRRGSRRGDEEEGGGGRKRAAQKKRKRKQPEEV”, the “transcriptional activation domain activity” value turned out to be 34800.
“ESSLSDKAEPKKEDSGKMAEAPKPAPEPKKEPKKEESKPAAKQESKKEVEEKA”: the “transcriptional activation domain activity” value came to 35200.
As to “ESSSDEEEMTVAQKMAAQRKAEAAARRAKAHEEALAARSKDDLRSPICCILGH”, the “transcriptional activation domain activity” value turned out to be 53200.
As to “ESSSSTGAEEKKKKKKSSKDKKRKAEDEDDATDGAEEKKSKKVKASEDEPARK”, the “transcriptional activation domain activity” value was 14100.
The same measure for “ESVRQHIVTETKNRVETYLAHCNPIVPHQRLTLLLARLLLRKLDFVTRLQWIL”: 50300; for “ESVSESESASASESAAEEASAAPEEDAMWSNIMKKFARRDEEESVSESASASE”: 54900.
In the case of “ETAKIDIEKQSNGETDISVLRNHAPGTAPTEEENLEKNMAPLRKLIRLLLLNT”, the “transcriptional activation domain activity” value was 39100.
The same measure for “ETAPATEEKPVEETKPAEEAAKTEEEKKEDEAKPIEEGHLNHKAQGLSFPKNL”: 55000; for “ETCGRCRGQGVVIQKAQLAPGIFQQMQMQCDQCGGQGTQIKHRCKVCGGARVV”: 52100; for “ETEGAEETSDAEGNESAGKQKKRARKSSHASSRSRTGAQNKKSTVEQKSTFRG”: 51600.
Consider “ETEGFAKMAKAMGFGVYGLPSYIIKHIYNNCTHLFVVWHYGTLLIHLTAYPSF”, for which the “transcriptional activation domain activity” value was 73700.
Regarding “ETGSEWREGSSDGFRSVKTVLLGVWAEYGGLRRNEICDTLRRLTLSSLGKINP”, the “transcriptional activation domain activity” value turned out to be 53800.
Take “ETIHGPAPATSFDDTNFTWQLFDESPGFDPLAQLQSFSDFGLSGHDLLFGFMD”: the “transcriptional activation domain activity” value came to 123000.
